The supplement of paper PMC10065799, “High-throughput profiling of sequence recognition by tyrosine kinases and SH2 domains using bacterial peptide display” (eLife, 2023)

Assays:
Fes = Fes (UniProt P07332); assay: phosphorylation enrichment, bacterial display (enrichment ratio); higher = better substrate or ligand; peptides without Tyr show the background
c-Abl (mouse) = assay: as above
FGFR1 = FGFR1 (UniProt P11362); assay: as above
Fer (mouse) = assay: as above
AncSZ = assay: as above
EPHB2 = EPHB2 (UniProt P29323); assay: as above
EPHB2, sequence (P29323 whole entry, looked up): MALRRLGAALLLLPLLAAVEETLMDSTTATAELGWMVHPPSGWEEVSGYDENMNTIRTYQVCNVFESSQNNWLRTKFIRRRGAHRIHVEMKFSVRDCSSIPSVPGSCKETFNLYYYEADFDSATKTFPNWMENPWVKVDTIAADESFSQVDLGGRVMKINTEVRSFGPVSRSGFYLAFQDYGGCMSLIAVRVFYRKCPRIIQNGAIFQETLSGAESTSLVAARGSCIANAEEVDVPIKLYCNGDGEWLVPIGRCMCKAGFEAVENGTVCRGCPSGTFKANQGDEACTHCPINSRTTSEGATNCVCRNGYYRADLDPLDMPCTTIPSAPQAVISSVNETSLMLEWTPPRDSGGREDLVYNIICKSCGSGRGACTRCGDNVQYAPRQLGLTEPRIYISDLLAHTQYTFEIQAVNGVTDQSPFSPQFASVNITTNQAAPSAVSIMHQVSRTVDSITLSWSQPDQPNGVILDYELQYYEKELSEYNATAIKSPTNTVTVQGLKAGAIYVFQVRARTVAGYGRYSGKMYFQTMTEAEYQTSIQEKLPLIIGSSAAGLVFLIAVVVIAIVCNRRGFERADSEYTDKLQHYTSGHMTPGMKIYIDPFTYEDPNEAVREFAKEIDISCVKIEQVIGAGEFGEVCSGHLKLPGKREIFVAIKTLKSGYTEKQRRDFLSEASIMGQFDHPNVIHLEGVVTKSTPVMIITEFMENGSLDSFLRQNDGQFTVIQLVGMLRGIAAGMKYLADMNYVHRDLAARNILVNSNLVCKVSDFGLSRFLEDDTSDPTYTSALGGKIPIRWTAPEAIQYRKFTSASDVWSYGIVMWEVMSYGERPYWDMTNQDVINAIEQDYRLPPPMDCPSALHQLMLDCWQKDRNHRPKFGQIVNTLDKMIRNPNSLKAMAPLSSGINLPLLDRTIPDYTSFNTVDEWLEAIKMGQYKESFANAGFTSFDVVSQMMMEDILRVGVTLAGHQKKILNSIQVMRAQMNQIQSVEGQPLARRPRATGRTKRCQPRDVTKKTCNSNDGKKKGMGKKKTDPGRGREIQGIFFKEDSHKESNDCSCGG

FGFR3 = FGFR3 (UniProt P22607); assay: as above
Fyn = Fyn (UniProt P06241); assay: as above
Fyn, sequence (P06241 whole entry, looked up): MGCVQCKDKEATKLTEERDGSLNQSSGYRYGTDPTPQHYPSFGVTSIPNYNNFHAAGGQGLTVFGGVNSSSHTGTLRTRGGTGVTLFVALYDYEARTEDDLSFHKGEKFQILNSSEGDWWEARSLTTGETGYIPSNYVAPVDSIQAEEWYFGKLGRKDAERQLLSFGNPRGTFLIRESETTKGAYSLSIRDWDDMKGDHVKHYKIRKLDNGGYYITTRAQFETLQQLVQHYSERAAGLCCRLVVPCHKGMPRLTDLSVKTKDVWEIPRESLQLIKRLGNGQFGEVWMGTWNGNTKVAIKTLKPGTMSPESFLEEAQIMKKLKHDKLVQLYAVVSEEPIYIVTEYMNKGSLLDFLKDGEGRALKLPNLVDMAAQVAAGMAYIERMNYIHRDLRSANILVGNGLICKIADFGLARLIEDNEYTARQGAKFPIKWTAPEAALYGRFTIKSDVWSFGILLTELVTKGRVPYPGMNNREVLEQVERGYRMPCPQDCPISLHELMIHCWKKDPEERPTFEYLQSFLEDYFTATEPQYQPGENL

MERTK = MERTK (UniProt Q12866); assay: as above
EPHB1 = EPHB1 (UniProt P54762); assay: as above
EPHB1, sequence (P54762 whole entry, looked up): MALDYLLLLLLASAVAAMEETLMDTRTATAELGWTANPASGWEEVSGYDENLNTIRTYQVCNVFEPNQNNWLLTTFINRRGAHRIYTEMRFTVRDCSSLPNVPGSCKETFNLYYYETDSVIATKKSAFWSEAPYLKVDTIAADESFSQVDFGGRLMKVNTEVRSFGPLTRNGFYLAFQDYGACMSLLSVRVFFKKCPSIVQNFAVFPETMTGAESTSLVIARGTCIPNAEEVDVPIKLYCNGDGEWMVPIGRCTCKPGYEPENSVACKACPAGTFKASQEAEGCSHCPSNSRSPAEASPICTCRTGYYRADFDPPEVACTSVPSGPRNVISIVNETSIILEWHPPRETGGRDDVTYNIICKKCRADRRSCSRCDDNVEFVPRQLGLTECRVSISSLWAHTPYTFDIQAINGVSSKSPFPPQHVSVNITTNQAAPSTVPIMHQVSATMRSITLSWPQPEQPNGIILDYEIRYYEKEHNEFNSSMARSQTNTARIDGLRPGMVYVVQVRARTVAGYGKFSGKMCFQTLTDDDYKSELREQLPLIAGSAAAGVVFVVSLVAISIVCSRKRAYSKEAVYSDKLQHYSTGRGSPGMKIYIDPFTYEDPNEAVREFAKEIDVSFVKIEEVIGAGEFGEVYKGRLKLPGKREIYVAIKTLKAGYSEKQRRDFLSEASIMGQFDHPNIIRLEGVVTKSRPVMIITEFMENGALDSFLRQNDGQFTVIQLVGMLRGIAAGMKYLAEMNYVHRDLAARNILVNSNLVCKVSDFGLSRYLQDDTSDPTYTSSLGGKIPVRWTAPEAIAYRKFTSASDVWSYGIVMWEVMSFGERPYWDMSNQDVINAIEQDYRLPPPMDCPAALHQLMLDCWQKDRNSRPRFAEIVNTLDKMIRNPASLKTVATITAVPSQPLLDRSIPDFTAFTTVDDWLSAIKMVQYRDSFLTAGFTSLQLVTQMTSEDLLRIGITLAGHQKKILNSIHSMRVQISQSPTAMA

c-Src = assay: as above
Hck = Hck (UniProt P08631); assay: as above
Hck, sequence (P08631 whole entry, looked up): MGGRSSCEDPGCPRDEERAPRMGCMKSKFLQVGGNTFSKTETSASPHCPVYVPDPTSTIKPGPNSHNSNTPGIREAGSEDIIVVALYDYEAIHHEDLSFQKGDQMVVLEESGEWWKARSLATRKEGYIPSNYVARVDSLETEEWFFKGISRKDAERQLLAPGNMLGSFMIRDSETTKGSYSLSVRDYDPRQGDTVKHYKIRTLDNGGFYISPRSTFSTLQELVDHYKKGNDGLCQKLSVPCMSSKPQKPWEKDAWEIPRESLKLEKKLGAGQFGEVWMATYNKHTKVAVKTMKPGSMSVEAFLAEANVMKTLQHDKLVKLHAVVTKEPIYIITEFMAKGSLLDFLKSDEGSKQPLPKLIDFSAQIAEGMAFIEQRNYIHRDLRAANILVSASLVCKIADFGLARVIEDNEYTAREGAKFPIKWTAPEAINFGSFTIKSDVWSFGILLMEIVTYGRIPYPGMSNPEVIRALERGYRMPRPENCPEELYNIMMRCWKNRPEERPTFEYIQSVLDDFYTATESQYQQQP

Jak2 = Jak2 (UniProt O60674); assay: as above
Jak2, sequence (O60674 whole entry, looked up): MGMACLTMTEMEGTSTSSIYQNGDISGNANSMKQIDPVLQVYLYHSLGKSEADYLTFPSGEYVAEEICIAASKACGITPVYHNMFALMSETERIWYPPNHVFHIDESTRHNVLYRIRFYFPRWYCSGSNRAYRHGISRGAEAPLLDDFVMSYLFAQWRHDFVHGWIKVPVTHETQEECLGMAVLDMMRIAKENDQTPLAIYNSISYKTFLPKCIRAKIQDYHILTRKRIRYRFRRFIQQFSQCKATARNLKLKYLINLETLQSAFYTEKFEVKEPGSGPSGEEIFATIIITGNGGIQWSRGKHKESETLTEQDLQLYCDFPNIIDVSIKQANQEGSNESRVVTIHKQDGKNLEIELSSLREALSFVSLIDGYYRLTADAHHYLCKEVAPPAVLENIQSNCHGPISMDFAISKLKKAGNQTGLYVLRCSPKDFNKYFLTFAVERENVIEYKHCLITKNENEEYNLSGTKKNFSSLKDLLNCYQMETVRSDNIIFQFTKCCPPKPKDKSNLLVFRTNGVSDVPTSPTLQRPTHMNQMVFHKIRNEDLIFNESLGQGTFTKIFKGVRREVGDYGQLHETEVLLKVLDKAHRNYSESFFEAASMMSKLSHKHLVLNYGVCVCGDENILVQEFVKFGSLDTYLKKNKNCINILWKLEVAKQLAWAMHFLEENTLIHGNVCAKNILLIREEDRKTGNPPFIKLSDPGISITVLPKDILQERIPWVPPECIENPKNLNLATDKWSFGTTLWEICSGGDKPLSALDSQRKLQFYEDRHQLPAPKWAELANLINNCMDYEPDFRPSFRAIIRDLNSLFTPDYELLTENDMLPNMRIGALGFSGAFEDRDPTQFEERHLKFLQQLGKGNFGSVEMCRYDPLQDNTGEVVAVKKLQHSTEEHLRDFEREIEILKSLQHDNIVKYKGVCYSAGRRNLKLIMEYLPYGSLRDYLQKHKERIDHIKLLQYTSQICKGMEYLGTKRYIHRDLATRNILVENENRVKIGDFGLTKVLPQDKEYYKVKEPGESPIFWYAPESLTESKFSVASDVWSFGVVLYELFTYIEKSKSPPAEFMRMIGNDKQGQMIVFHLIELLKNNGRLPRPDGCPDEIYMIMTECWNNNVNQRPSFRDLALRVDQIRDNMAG

SHP2-C SH2 = assay: SH2 binding enrichment of the phosphorylated peptide, bacterial display (enrichment ratio); higher = better substrate or ligand; peptides without Tyr show the background
c-Src SH2 = assay: as above
Grb2 SH2 = Grb2 SH2 (UniProt P62993); assay: as above
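Wherever SH2 binding enrichment of the phosphorylated peptide, bacterial display is given: peptide library displayed on the E. coli surface as eCPX fusions, selected cells deep-sequenced, score is each peptide's frequency after selection divided by its frequency in the input.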
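Wherever phosphorylation enrichment, bacterial display is given: 11-residue human phosphosite peptides and single-mutation variants displayed on the E. coli surface, counted by deep sequencing, each peptide's frequency after selection divided by its frequency in the unselected input library; frequency after pTyr selection over input frequency; kinase dosed for 20-30% of maximal phosphorylation in three min.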

Fes, sequence (P07332 whole entry, looked up): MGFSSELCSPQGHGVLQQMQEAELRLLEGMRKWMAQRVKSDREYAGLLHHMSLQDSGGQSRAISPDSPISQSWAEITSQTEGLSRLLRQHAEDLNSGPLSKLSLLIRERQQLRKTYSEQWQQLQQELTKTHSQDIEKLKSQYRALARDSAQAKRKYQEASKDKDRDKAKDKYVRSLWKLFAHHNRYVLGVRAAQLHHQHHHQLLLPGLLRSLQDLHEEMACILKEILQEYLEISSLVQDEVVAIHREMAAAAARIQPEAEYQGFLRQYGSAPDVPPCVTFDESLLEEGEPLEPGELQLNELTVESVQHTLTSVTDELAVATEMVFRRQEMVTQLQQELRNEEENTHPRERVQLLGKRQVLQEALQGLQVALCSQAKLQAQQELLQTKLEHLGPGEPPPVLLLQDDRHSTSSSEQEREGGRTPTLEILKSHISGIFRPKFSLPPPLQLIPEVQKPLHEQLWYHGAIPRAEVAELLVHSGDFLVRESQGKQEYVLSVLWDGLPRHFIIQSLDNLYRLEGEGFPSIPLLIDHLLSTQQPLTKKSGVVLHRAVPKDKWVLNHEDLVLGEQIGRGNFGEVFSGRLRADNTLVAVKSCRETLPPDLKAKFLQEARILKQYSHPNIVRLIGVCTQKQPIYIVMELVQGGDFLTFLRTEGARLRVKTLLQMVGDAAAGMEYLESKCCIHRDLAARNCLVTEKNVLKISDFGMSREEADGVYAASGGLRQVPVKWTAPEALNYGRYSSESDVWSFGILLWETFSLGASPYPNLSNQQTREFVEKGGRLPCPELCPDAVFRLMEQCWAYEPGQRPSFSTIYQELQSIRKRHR

SH2 binding enrichment (SHP2-C SH2) | SH2 binding enrichment (c-Src SH2) | SH2 binding enrichment (Grb2 SH2) | Sequence | phosphorylation enrichment (Fes) | phosphorylation enrichment (c-Abl (mouse)) | phosphorylation enrichment (FGFR1) | phosphorylation enrichment (Fer (mouse)) | phosphorylation enrichment (AncSZ) | phosphorylation enrichment (EPHB2) | phosphorylation enrichment (FGFR3) | phosphorylation enrichment (Fyn) | phosphorylation enrichment (MERTK) | phosphorylation enrichment (EPHB1) | phosphorylation enrichment (c-Src) | phosphorylation enrichment (Hck) | phosphorylation enrichment (Jak2)
0.543 | 0.471 | 0.663 | SFSGEYGGGGG [ZG16_Y30_YF] | 0.571 | 0.505 | 0.496 | 0.413 | 0.62 | 0.467 | 0.35 | 0.348 | 0.306 | 0.392 | 0.423 | 0.397 | 0.47
1.05 | 1.07 | 1.24 | SGIYQYIIAKF [FOXL2_Y83] | 1.72 | 6.06 | 6.4 | 9.49 | 1.15 | 5.98 | 4.7 | 4.03 | 8.1 | 10.6 | 3.69 | 6.52 | 0.852
0.875 | 1.01 | 0.976 | SGIYQYNIAKF [FOXL2_Y83_I84N] | 0.732 | 4.58 | 0.659 | 14.7 | 0.898 | 1.56 | 0.605 | 3.42 | 9.83 | 2.14 | 3.79 | 4.76 | 0.593
0.766 | 0.586 | 0.808 | SGPRCYTIAAL [TTR_Y125_R124C] | 0.669 | 0.46 | 0.392 | 0.554 | 0.617 | 0.403 | 0.462 | 0.405 | 0.344 | 0.41 | 0.399 | 0.354 | 0.535
1.19 | 1.35 | 1.06 | SGPRHYTIAAL [TTR_Y125_R124H] | 0.66 | 0.524 | 0.404 | 0.438 | 0.59 | 0.51 | 0.509 | 0.455 | 0.464 | 0.516 | 0.455 | 0.468 | 0.525
0.824 | 0.861 | 0.734 | SGSIHYSRVPR [GLB1_Y57] | 0.763 | 0.716 | 0.772 | 0.535 | 0.629 | 0.436 | 0.578 | 0.605 | 0.64 | 0.542 | 0.677 | 0.529 | 0.772
0.71 | 0.417 | 1.01 | SHSMKYFDTAV [HLA-C_Y31_R30K] | 0.572 | 0.469 | 0.396 | 0.357 | 0.579 | 0.389 | 0.432 | 0.356 | 0.436 | 0.36 | 0.395 | 0.392 | 0.785
0.607 | 0.537 | 0.87 | SIIKDYFHRGA [GATM_Y203] | 0.679 | 0.525 | 0.48 | 0.433 | 0.579 | 0.438 | 0.455 | 0.407 | 0.397 | 0.376 | 0.477 | 0.43 | 0.764
0.926 | 0.68 | 1.05 | SISLRYEGRVF [ABL1_Y167_YF] | 1.26 | 0.696 | 0.524 | 0.686 | 1.25 | 0.703 | 0.838 | 0.438 | 0.384 | 0.636 | 0.372 | 0.507 | 0.918
0.881 | 0.685 | 1.11 | SISLRYEGRVY [ABL1_Y167] | 1.09 | 0.803 | 0.484 | 0.546 | 1.07 | 0.563 | 0.776 | 0.513 | 0.428 | 0.606 | 0.394 | 0.506 | 1.06
0.657 | 0.444 | 0.921 | SKNYTYIWWLN [PSG4_Y271] | 1.14 | 0.676 | 0.589 | 0.638 | 1.09 | 0.58 | 0.77 | 0.343 | 0.332 | 0.582 | 0.273 | 0.4 | 1.09
0.949 | 0.578 | 2.46 | SLMNQYVNKEF [RAB7A_Y28_K32E] | 0.66 | 0.482 | 0.373 | 0.385 | 0.58 | 0.554 | 0.568 | 0.461 | 0.383 | 0.392 | 0.459 | 0.469 | 0.442
0.581 | 0.456 | 0.722 | SLNEVYTKNKT [MSH2_Y563_E562V] | 0.727 | 0.437 | 0.446 | 0.328 | 0.641 | 0.411 | 0.444 | 0.411 | 0.423 | 0.375 | 0.431 | 0.38 | 0.514
0.914 | 3.32 | 0.712 | SLRAHYDTPRS [DOK7_Y405] | 0.448 | 0.412 | 0.343 | 0.367 | 0.428 | 0.351 | 0.351 | 0.349 | 0.319 | 0.392 | 0.298 | 0.328 | 0.402
0.634 | 0.48 | 0.756 | SMAKYYASEIA [ACADSB_Y373] | 0.701 | 0.682 | 0.426 | 0.495 | 0.601 | 0.433 | 0.478 | 0.404 | 0.46 | 0.459 | 0.452 | 0.473 | 0.599
0.446 | 0.542 | 0.777 | SMEGLYSSTQD [CLIC5_Y111] | 1.71 | 1.03 | 0.698 | 3.64 | 1.57 | 2.27 | 0.905 | 3.51 | 2.43 | 1.94 | 3.13 | 4.12 | 1.36

SH2 binding enrichment (SHP2-C SH2) | SH2 binding enrichment (c-Src SH2) | SH2 binding enrichment (Grb2 SH2) | Sequence | phosphorylation enrichment (Fes) | phosphorylation enrichment (c-Abl (mouse)) | phosphorylation enrichment (FGFR1) | phosphorylation enrichment (Fer (mouse)) | phosphorylation enrichment (AncSZ) | phosphorylation enrichment (EPHB2) | phosphorylation enrichment (FGFR3) | phosphorylation enrichment (Fyn) | phosphorylation enrichment (MERTK) | phosphorylation enrichment (EPHB1) | phosphorylation enrichment (c-Src) | phosphorylation enrichment (Hck) | phosphorylation enrichment (Jak2)
1.05 | 0.504 | 0.925 | SNKLTYGTMVF [ACOX1_Y275] | 1.02 | 0.836 | 0.459 | 0.631 | 0.773 | 0.604 | 0.573 | 5.28 | 0.495 | 0.505 | 4.65 | 2.9 | 0.863
0.811 | 0.92 | 0.846 | SPPPAYTPMSG [ERBB4_Y1056] | 0.503 | 0.459 | 0.41 | 0.379 | 0.522 | 0.429 | 0.457 | 0.483 | 0.529 | 0.438 | 0.388 | 0.45 | 0.503
0.544 | 0.529 | 0.899 | SQDSAYHSGIQ [FLG_Y3940] | 0.614 | 0.506 | 0.4 | 0.404 | 0.557 | 0.366 | 0.512 | 0.421 | 0.489 | 0.532 | 0.386 | 0.678 | 0.492
0.753 | 0.403 | 0.767 | SREDIYKRNIE [PDE4DIP_Y45] | 0.81 | 0.654 | 0.5 | 0.431 | 0.659 | 0.553 | 0.585 | 0.591 | 0.366 | 0.422 | 0.405 | 0.603 | 0.7
0.616 | 0.645 | 0.848 | SSMNDYNPLEK [MYOC_Y479_I477N] | 0.977 | 0.625 | 0.456 | 0.397 | 0.797 | 0.454 | 0.578 | 0.4 | 0.614 | 0.422 | 0.502 | 0.479 | 1.07
1.66 | 0.829 | 0.86 | SSPQPYLVPFL [TAF4_Y652] | 0.78 | 1.09 | 0.522 | 0.466 | 0.857 | 0.867 | 0.746 | 0.497 | 0.514 | 0.415 | 0.49 | 0.481 | 2.85
0.721 | 0.43 | 0.816 | SSQAHYRLSAF [ADAMTS9_Y100] | 0.584 | 0.481 | 0.399 | 0.347 | 0.65 | 0.426 | 0.584 | 0.449 | 0.368 | 0.452 | 0.41 | 0.434 | 0.482
0.621 | 1.94 | 0.667 | SSSAIYDNPDL [DCP1B_Y191_N195D] | 1.07 | 9.33 | 0.519 | 6.58 | 1.29 | 10.9 | 0.651 | 3.81 | 5.29 | 7.52 | 2.7 | 5.17 | 0.914
3 | 2.24 | 0.777 | SSVAGYACLAY [MVD_Y131_A128V] | 0.994 | 0.768 | 0.495 | 0.587 | 0.898 | 0.582 | 0.701 | 0.466 | 0.463 | 0.564 | 0.554 | 0.538 | 0.852
1 | 1.99 | 0.905 | SSYSGYIMMPN [LEF1_Y114] | 0.718 | 0.486 | 3.79 | 0.604 | 0.858 | 1.09 | 2.38 | 0.571 | 2.47 | 0.923 | 0.684 | 0.51 | 5.39
0.837 | 0.476 | 0.878 | STGRSYAGVAV [KLHL3_Y577] | 0.466 | 0.361 | 0.482 | 0.31 | 0.43 | 0.3 | 0.389 | 0.345 | 0.318 | 0.25 | 0.302 | 0.315 | 0.389
0.758 | 0.476 | 0.74 | STSKTYVISRT [RBBP6_Y87] | 0.497 | 0.423 | 0.503 | 0.396 | 0.628 | 0.426 | 0.498 | 0.416 | 0.417 | 0.387 | 0.444 | 0.465 | 0.527
0.733 | 0.692 | 0.968 | SVCPDYDLCSI [SQSTM1_Y148_V153I] | 1.16 | 0.876 | 0.709 | 2.9 | 1.72 | 0.914 | 0.763 | 0.868 | 0.616 | 0.942 | 0.801 | 0.599 | 1.11
0.861 | 0.444 | 0.718 | SVGVPYEPPEV [TP53_Y220_V217G] | 1.29 | 0.881 | 0.523 | 0.585 | 1.16 | 0.57 | 0.748 | 0.545 | 0.485 | 0.534 | 0.509 | 0.577 | 1.09
0.707 | 0.396 | 0.747 | SVKVFYKKCWS [EPHA7_Y202_YF] | 1.49 | 0.965 | 0.507 | 0.532 | 1.14 | 0.647 | 0.841 | 0.424 | 0.409 | 0.621 | 0.59 | 0.457 | 1.21
0.508 | 0.472 | 0.856 | SVTCTCSPALN [TP53_Y126_Y126C] | 1.48 | 0.907 | 0.585 | 0.533 | 1.16 | 0.614 | 0.889 | 0.479 | 0.395 | 0.704 | 0.415 | 0.526 | 1.15

Sequence | SH2 binding enrichment (SHP2-C SH2) | SH2 binding enrichment (c-Src SH2) | SH2 binding enrichment (Grb2 SH2) | phosphorylation enrichment (Fes) | phosphorylation enrichment (c-Abl (mouse)) | phosphorylation enrichment (FGFR1) | phosphorylation enrichment (Fer (mouse)) | phosphorylation enrichment (AncSZ) | phosphorylation enrichment (EPHB2) | phosphorylation enrichment (FGFR3) | phosphorylation enrichment (Fyn) | phosphorylation enrichment (MERTK) | phosphorylation enrichment (EPHB1) | phosphorylation enrichment (c-Src) | phosphorylation enrichment (Hck) | phosphorylation enrichment (Jak2)
SIKDKYVTAFF [KCNH2_Y611_L615F_YF] | 0.848 | 0.589 | 1.04 | 0.731 | 0.635 | 0.403 | 0.483 | 0.582 | 0.44 | 0.489 | 0.399 | 0.369 | 0.363 | 0.372 | 0.4 | 0.526
